Laboratory results published in PMC12103069.
pKd: −log10 of the molar value.

molecular target: GST-MuRF1 (MuRF1 full length, TRIM63) (Rattus norvegicus); assay: other fluorescence titration; change in the initial fluorescence of dye-labelled GST-MuRF (10 nM, constant) with a 16-sample serial dilution of the E2; MonolithX (NanoTemper), premium capillaries, 100% MST power, 25 °C; 50 mM HEPES pH 7.4, 150 mM NaCl, 0.005% Tween20, 0.1% dextran
Sequence (Q91Z63 whole entry): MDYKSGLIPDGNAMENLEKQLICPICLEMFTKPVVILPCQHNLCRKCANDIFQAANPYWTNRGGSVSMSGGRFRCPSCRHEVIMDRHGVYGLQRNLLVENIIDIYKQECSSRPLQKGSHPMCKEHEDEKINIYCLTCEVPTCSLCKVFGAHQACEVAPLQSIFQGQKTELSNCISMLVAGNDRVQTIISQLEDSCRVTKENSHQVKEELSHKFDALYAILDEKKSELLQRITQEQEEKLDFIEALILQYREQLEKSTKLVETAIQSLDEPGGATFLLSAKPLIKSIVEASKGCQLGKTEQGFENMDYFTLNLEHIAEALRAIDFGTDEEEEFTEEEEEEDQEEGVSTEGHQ

Substance	pKd
UBE2J2 cytosolic part N6A,R8A (from UniProt Q6P073 1-259) (domain or fragment)	5.05
UBE2J2 cytosolic part K26A (from UniProt Q6P073 1-259) (domain or fragment)	4.59
UBE2J2 cytosolic part P10A,T11A (from UniProt Q6P073 1-259) (domain or fragment)	4.99
